Reference: patent US20030124602A1 (Novartis, published 2003)

B2: Gal4-AD-CTMP fusion protein encoded by pGADGH.CTMP (CTMPL fused to the GAL4 transcriptional activation domain) (other, not shown: small tags and cut ends)
chain: NSARARASAAPRPGAMLRSCAARLRTLGALCRPPVGRRLPGSEPRPELRSFSSEEVILKDCSVPNPSWNKDLRLLFDQFMKKCEDGSWKRLPSYKRTPTEWIQDFKTHFLDPKLMKEEQMSQAQLFTRSFDDGLGFEYVMFYNDIEKRMVCLFQGGPYLEGPPGFIHGGAIATMIDATVGMCAMMAGGIVMTANLNINYKRPIPLCSVVMINSQLDKVEGRKFFVSCNVQSVDEKTLYSEATSLFIKLNPAKSLT
notes: Yeast two-hybrid prey recovered from a HeLa cDNA library; also called this clone
B3: GAL4 DNA binding domain fusion of human PKB alpha amino acids 411-480 (pGBT-CT) (other, yeast;human, UniProt P04386 1-147, looked up)
chain: MKLLSSIEQACDICRLKKLKCSKEKPKCAKCLKNNWECRYSPKTKRSPLTRAHLTEVESRLERLEQLFLLIFPREDLDMILKMDSLQDIKALLTGLFVQDNVNKDAVTDRLASVETDMPLTLRQHRISATSSSEESSNKGQRQLTVSIVWQHVYEKKLSPPFKPQVTSETDTRYFDEEFTAQMITITPPDQDDSMECVDSERRPHFPQFSYSASGTA
notes: range 1-147;range 411-480

What was measured:
[1] = molecular target: T1, GAL4 DNA binding domain fusion of human PKB alpha amino acids 1-480 (pGBT-PH-KIN-CT, full-length PKB) (yeast; human, UniProt P04386 1-147; P31749 1-480); test: yeast two-hybrid
T1 construct: range 1-147;range 1-480

[2] = molecular target: T2, GAL4 DNA binding domain fusion of human PKB alpha amino acids 147-480 (pGBT-KIN-CT) (yeast; human, UniProt P04386 1-147; P31749 147-480); test: yeast two-hybrid
T2 construct: range 1-147;range 147-480; Bait of the library screen; also called deltaPH

[3] = molecular target: B3; test: yeast two-hybrid
[4] = molecular target: T1, GAL4 DNA binding domain fusion of human …; test: yeast two-hybrid, His auxotrophy and lacZ reporters
[5] = molecular target: T2, GAL4 DNA binding domain fusion of human …; test: as above
[6] = molecular target: B2; test: as above

B1: human Lamin C (control plasmid pLAM5') (other, UniProt P02545-2 66-230, looked up)
chain: SEEVVSREVSGIKAAYEAELGDARKTLDSVAKERARLQLELSKVREEFKELKARNTKKEGDLIAAQARLKDLEALLNSKEAALSTALSEKRTLEGELHDLRGQVAKLEAALGEAKKQLQDEMLRRVDAENRLQTMKEELDFQKNIYSEELRETKRRHETRLVEID
notes: Two-hybrid control protein; Lamin C is an isoform of the LMNA entry
binding result [1]: no binding
binding result [2]: no binding
binding result [3]: no binding

B2
binding result [4]: binds
binding result [5]: binds

B3
binding result [6]: binds
